Measured values taken from patent EP4803150A2 (Lyvgen Biopharma Holdings Limited, dated 2026).

T1: CD3 (human)
T1 chain: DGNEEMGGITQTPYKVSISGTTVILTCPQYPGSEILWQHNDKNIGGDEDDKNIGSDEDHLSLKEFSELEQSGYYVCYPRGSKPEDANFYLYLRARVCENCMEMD

B1: Ly2278 (bispecific antibody)
chain 1: QVQLQQSGAELVRPGSSVKISCKASGYAFSSYWMNWVKQRPGQGLEWIGQIWPGDGDTNYNGKFKGKATLTADESSSTAYMQLSSLASEDSAVYFCARRETTTVGRYYYAMDYWGQGTTVTVSSASTKGPSVFPLAPSSKSTSGGTAALGCLVKDYFPEPVTVSWNSGALTSGVHTFPAVLQSSGLYSLSSVVTVPSSSLGTQTYICNVNHKPSNTKVDKKVEPKSCGGGGSGGGGSGGGGSGGGGSEVQLVESGGGLVQPGGSLRLSCAASGFTFSTYAMNWVRQAPGKGLEWVGRIRSKYNNYATYYADSVKGRFTISRDDSKNSLYLQMNSLKTEDTAVYYCVRHGNFGNSYVSWFAYWGQGTLVTVSSGGGGSDKTHTCPPCPAPEAAGPSVFLFPPKPKDTLMISRTPEVTCVVVDVSHEDPEVKFNWYVDGVEVHNAKTKPREEQYNSTYRVVSVLTVLHQDWLNGKEYKCKVSNKALPAPIEKTISKAKGQPREPQVYTLPPSREEMTKNQVSLWCLVKGFYPSDIAVEWESNGQPENNYKTTPPVLDSDGSFFLYSKLTVDKSRWQQGNVFSCSVMHEALHNHYTQKSLSLSPG
chain 2: QVQLQQSGAELVRPGSSVKISCKASGYAFSSYWMNWVKQRPGQGLEWIGQIWPGDGDTNYNGKFKGKATLTADESSSTAYMQLSSLASEDSAVYFCARRETTTVGRYYYAMDYWGQGTTVTVSSASTKGPSVFPLAPSSKSTSGGTAALGCLVKDYFPEPVTVSWNSGALTSGVHTFPAVLQSSGLYSLSSVVTVPSSSLGTQTYICNVNHKPSNTKVDKKVEPKSCGGGGSGGGGSGGGGSGGGGSQAVVTQEPSLTVSPGGTVTLTCRSSTGAVTTSNYANWVQQKPGQAPRGLIGGTNKRAPWTPARFSGSLLGGKAALTITGAQAEDEADYYCALWYSNLWVFGGGTKLTVLGGGGSDKTHTCPPCPAPEAAGPSVFLFPPKPKDTLMISRTPEVTCVVVDVSHEDPEVKFNWYVDGVEVHNAKTKPREEQYNSTYRVVSVLTVLHQDWLNGKEYKCKVSNKALPAPIEKTISKAKGQPREPQVYTLPPSREEMTKNQVSLSCAVKGFYPSDIAVEWESNGQPENNYKTTPPVLDSDGSFFLVSKLTVDKSRWQQGNVFSCSVMHEALHNRFTQKSLSLSPG
chain 3: not shown
notes: CD19/CD3
B2: Anti-CD3 Ly305 (antibody, V domains shown)
VH: EVQLVESGGGLVQPGGSLRLSCAASGFTFSTYAMNWVRQAPGKGLEWVGRIRSKYNNYATYYADSVKGRFTISRDDSKNSLYLQMNSLKTEDTAVYYCVRHGNFGNSYVSWFAYWGQGTLVTVSS
VL: QAVVTQEPSLTVSPGGTVTLTCRSSTGAVTTSNYANWVQQKPGQAPRGLIGGTNKRAPWTPARFSGSLLGGKAALTITGAQAEDEADYYCALWYSNLWVFGGGTKLTVL
notes: Parent mAb; also called CD3 mAb Ly305
B3: Ly1963 (multi-specific antibody)
chain 1: QVQLVQSGAEVKKPGASVKVSCKASGYTFTSYVMHWVRQKPGQGLEWIGYINPYNEGTESTDKFKGRATMTSDKSTSTVYMELSSLRSEDTAVYYCASIYYGYEGTYFGVWGQGTLVTVSSASTKGPSVFPLAPSSKSTSGGTAALGCLVKDYFPEPVTVSWNSGALTSGVHTFPAVLQSSGLYSLSSVVTVPSSSLGTQTYICNVNHKPSNTKVDKKVEPKSCGGGGSGGGGSGGGGSGGGGSEVQLVESGGGLVQPGGSLRLSCAASGFTFSTYAMNWVRQAPGKGLEWVGRIRSKYNNYATYYADSVKGRFTISRDDSKNSLYLQMNSLKTEDTAVYYCVRHGNFGNSYVSWFAYWGQGTLVTVSSGGGGSDKTHTCPPCPAPEAAGPSVFLFPPKPKDTLMISRTPEVTCVVVDVSHEDPEVKFNWYVDGVEVHNAKTKPREEQYNSTYRVVSVLTVLHQDWLNGKEYKCKVSNKALPAPIEKTISKAKGQPREPQVYTLPPSREEMTKNQVSLWCLVKGFYPSDIAVEWESNGQPENNYKTTPPVLDSDGSFFLYSKLTVDKSRWQQGNVFSCSVMHEALHNHYTQKSLSLSPGGGGGSGGGGSGGGGSGGGGSQVQLVQSGAEVKKPGASVKVSCKASGYTFAGFEMHWVRQAPGQGLEWMGAIDPKTGGTDYNQKFKDRVTMTRDTSISTAYMELSRLRSDDTAVYYCARDLGYFDVWGQGTLVTVSS
chain 2: QVQLVQSGAEVKKPGASVKVSCKASGYTFTSYVMHWVRQKPGQGLEWIGYINPYNEGTESTDKFKGRATMTSDKSTSTVYMELSSLRSEDTAVYYCASIYYGYEGTYFGVWGQGTLVTVSSASTKGPSVFPLAPSSKSTSGGTAALGCLVKDYFPEPVTVSWNSGALTSGVHTFPAVLQSSGLYSLSSVVTVPSSSLGTQTYICNVNHKPSNTKVDKKVEPKSCGGGGSGGGGSGGGGSGGGGSQAVVTQEPSLTVSPGGTVTLTCRSSTGAVTTSNYANWVQQKPGQAPRGLIGGTNKRAPWTPARFSGSLLGGKAALTITGAQAEDEADYYCALWYSNLWVFGGGTKLTVLGGGGSDKTHTCPPCPAPEAAGPSVFLFPPKPKDTLMISRTPEVTCVVVDVSHEDPEVKFNWYVDGVEVHNAKTKPREEQYNSTYRVVSVLTVLHQDWLNGKEYKCKVSNKALPAPIEKTISKAKGQPREPQVYTLPPSREEMTKNQVSLSCAVKGFYPSDIAVEWESNGQPENNYKTTPPVLDSDGSFFLVSKLTVDKSRWQQGNVFSCSVMHEALHNHYTQKSLSLSPGGGGGSGGGGSGGGGSGGGGSDIQMTQSPSSLSASVGDRVTITCRASQDIRSNLNWYQQKPGGAVKLLIYYTSRLHSGVPSRFSGSGSGTDYTLTISSLQPEDFATYFCQQSEKLPRTFGGGTKVEIR
chain 3: EIVLTQSPATLSLSPGERATLSCRASSSVSYMHWYQQKPGQAPRPWIYATSNLASGIPARFSGSRSGTDYTLTISSLEPEDFAVYYCQQWSSNTLTFGGGTKVEIKRTVAAPSVFIFPPSDEQLKSGTASVVCLLNNFYPREAKVQWKVDNALQSGNSQESVTEQDSKDSTYSLSSTLTLSKADYEKHKVYACEVTHQGLSSPVTKSFNRGEC
notes: Trispecific B7H3/CD3/CD137
B4: Ly2128 (multi-specific antibody)
chain 1: QVQLVQSGAEVKKPGASVKVSCKASGYTFTSYVMHWVRQKPGQGLEWIGYINPYNEGTESTDKFKGRATMTSDKSTSTVYMELSSLRSEDTAVYYCASIYYGYEGTYFGVWGQGTLVTVSSASTKGPSVFPLAPSSKSTSGGTAALGCLVKDYFPEPVTVSWNSGALTSGVHTFPAVLQSSGLYSLSSVVTVPSSSLGTQTYICNVNHKPSNTKVDKKVEPKSCGGGGSGGGGSGGGGSGGGGSEVQLVESGGGLVQPGGSLRLSCAASGFTFSTYAMNWVRQAPGKGLEWVGRIRSKYNNYATYYADSVKGRFTISRDDSKNSLYLQMNSLKTEDTAVYYCVRHGNFGNSYVSWFAYWGQGTLVTVSSGGGGSDKTHTCPPCPAPEAAGPSVFLFPPKPKDTLMISRTPEVTCVVVDVSHEDPEVKFNWYVDGVEVHNAKTKPREEQYNSTYRVVSVLTVLHQDWLNGKEYKCKVSNKALPAPIEKTISKAKGQPREPQVYTLPPSREEMTKNQVSLWCLVKGFYPSDIAVEWESNGQPENNYKTTPPVLDSDGSFFLYSKLTVDKSRWQQGNVFSCSVMHEALHNHYTQKSLSLSPGGGGGSGGGGSGGGGSGGGGSQVQLVQSGAEVKKPGASVKVSCKASGYTFTSYYIHWVRQAPGQGLEWIGCIYPGNVNTNYNEKFKDRATLTVDTSISTAYMELSRLRSDDTAVYFCTRSHYGLDWNFDVWGQGTTVTVSS
chain 2: not shown
chain 3: B3 chain 3
notes: Tri-specific B7H3/CD3/CD28
B5: Ly1965 (bispecific antibody)
chain 1: QVQLVQSGAEVKKPGASVKVSCKASGYTFTSYVMHWVRQKPGQGLEWIGYINPYNEGTESTDKFKGRATMTSDKSTSTVYMELSSLRSEDTAVYYCASIYYGYEGTYFGVWGQGTLVTVSSASTKGPSVFPLAPSSKSTSGGTAALGCLVKDYFPEPVTVSWNSGALTSGVHTFPAVLQSSGLYSLSSVVTVPSSSLGTQTYICNVNHKPSNTKVDKKVEPKSCGGGGSGGGGSGGGGSGGGGSEVQLVESGGGLVQPGGSLRLSCAASGFTFSTYAMNWVRQAPGKGLEWVGRIRSKYNNYATYYADSVKGRFTISRDDSKNSLYLQMNSLKTEDTAVYYCVRHGNFGNSYVSWFAYWGQGTLVTVSSGGGGSDKTHTCPPCPAPEAAGPSVFLFPPKPKDTLMISRTPEVTCVVVDVSHEDPEVKFNWYVDGVEVHNAKTKPREEQYNSTYRVVSVLTVLHQDWLNGKEYKCKVSNKALPAPIEKTISKAKGQPREPQVYTLPPSREEMTKNQVSLWCLVKGFYPSDIAVEWESNGQPENNYKTTPPVLDSDGSFFLYSKLTVDKSRWQQGNVFSCSVMHEALHNHYTQKSLSLSPG
chain 2: QVQLVQSGAEVKKPGASVKVSCKASGYTFTSYVMHWVRQKPGQGLEWIGYINPYNEGTESTDKFKGRATMTSDKSTSTVYMELSSLRSEDTAVYYCASIYYGYEGTYFGVWGQGTLVTVSSASTKGPSVFPLAPSSKSTSGGTAALGCLVKDYFPEPVTVSWNSGALTSGVHTFPAVLQSSGLYSLSSVVTVPSSSLGTQTYICNVNHKPSNTKVDKKVEPKSCGGGGSGGGGSGGGGSGGGGSQAVVTQEPSLTVSPGGTVTLTCRSSTGAVTTSNYANWVQQKPGQAPRGLIGGTNKRAPWTPARFSGSLLGGKAALTITGAQAEDEADYYCALWYSNLWVFGGGTKLTVLGGGGSDKTHTCPPCPAPEAAGPSVFLFPPKPKDTLMISRTPEVTCVVVDVSHEDPEVKFNWYVDGVEVHNAKTKPREEQYNSTYRVVSVLTVLHQDWLNGKEYKCKVSNKALPAPIEKTISKAKGQPREPQVYTLPPSREEMTKNQVSLSCAVKGFYPSDIAVEWESNGQPENNYKTTPPVLDSDGSFFLVSKLTVDKSRWQQGNVFSCSVMHEALHNRFTQKSLSLSPG
chain 3: B3 chain 3
notes: B7H3/CD3

Target: T1, CD3
Assay: CD3 binding as in Example 2 (ELISA or FCM)

Q: With B1 as the binder, how does the EC50 read?
A: The EC50 was 1.46 µg/mL.

Q: B2 was tested. Which EC50 did it give?
A: Its EC50 is 0.03 µg/mL.

Q: With B3 as the binder, how does the EC50 read?
A: The EC50 was 0.74 µg/mL.

Q: For B4, which EC50 is on record?
A: Its EC50 is 1.08 µg/mL.

Q: How did the EC50 turn out when B5 was run?
A: Its EC50 is 0.419 µg/mL.
